Laboratory results published in patent US20180071366A1.
Numbered stars: 1 amine (or outer) side, 2 acyl side, 3 side chain; on linkers, the order of the positions; unused ones are H or OH. Bridge positions count the residues as written; N and C are the ends. Square brackets hold non-standard residues; d marks the D form. * marks the point of attachment. C20 diacid = O=C(O)CCCCCCCCCCCCCCCCCCC(=O)*; γGlu = O=C(O)[C@H](CCC(=O)[*:2])N[*:1]; Hyp = O=C(O)[C@@H]1C[C@@H](O)CN1; NMeI = CC[C@H](C)[C@H](NC)C(=O)O; hLys = NCCCCC[C@H](N)C(=O)O; Dab = NCC[C@H](N)C(=O)O; Sar = CNCC(=O)O

Assays:
[1] = target: recombinant human amylin 3 receptor (hAMYR3) (human), P30988; experiment: cell-based or functional assay
recombinant human amylin 3 receptor (hAMYR3) (human), P30988, sequence (P30988 25-474, chain 1 of 2): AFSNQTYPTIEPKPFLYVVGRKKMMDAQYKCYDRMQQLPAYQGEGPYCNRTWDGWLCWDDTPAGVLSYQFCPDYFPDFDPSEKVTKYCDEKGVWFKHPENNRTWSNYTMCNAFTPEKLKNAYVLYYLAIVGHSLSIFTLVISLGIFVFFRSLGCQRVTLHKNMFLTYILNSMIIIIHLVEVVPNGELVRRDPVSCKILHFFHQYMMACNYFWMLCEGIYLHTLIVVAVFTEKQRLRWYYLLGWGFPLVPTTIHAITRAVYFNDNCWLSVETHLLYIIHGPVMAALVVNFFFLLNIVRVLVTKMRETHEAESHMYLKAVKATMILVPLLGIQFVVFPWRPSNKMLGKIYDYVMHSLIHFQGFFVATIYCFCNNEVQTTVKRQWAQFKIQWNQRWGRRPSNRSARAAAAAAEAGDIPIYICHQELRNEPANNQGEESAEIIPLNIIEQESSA
recombinant human amylin 3 receptor (hAMYR3) (human), P30988, sequence (O60896 24-148, chain 2 of 2, further chain): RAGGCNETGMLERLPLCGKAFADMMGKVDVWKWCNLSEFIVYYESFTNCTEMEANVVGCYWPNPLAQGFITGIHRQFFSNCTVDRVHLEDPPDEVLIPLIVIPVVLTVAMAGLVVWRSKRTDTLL

[2] = target: recombinant human calcitonin receptor (hCT-R) (human), P30988; experiment: cell-based or functional assay
recombinant human calcitonin receptor (hCT-R) (human), P30988, sequence (P30988 25-474): as the sequence (P30988 25-474, chain 1 of 2) above

B1: Compound 14 (peptide)
peptide: {C20 diacid-γGlu}-RDGTASKATERLAHFLQRSSF[Sar]A[NMeI]LSSTEVGSNT[Hyp]-NH2
modifications: lactam 2-7
SMILES: CC[C@H](C)[C@@H](C(=O)N[C@@H](CC(C)C)C(=O)N[C@@H](CO)C(=O)N[C@@H](CO)C(=O)N[C@H](C(=O)N[C@@H](CCC(=O)O)C(=O)N[C@H](C(=O)NCC(=O)N[C@@H](CO)C(=O)N[C@@H](CC(N)=O)C(=O)N[C@H](C(=O)N1C[C@H](O)C[C@H]1C(N)=O)[C@@H](C)O)C(C)C)[C@@H](C)O)N(C)C(=O)[C@H](C)NC(=O)CN(C)C(=O)[C@H](Cc1ccccc1)NC(=O)[C@H](CO)NC(=O)[C@H](CO)NC(=O)[C@H](CCCNC(=N)N)NC(=O)[C@H](CCC(N)=O)NC(=O)[C@H](CC(C)C)NC(=O)[C@H](Cc1ccccc1)NC(=O)[C@H](Cc1c[nH]cn1)NC(=O)[C@H](C)NC(=O)[C@H](CC(C)C)NC(=O)[C@H](CCCNC(=N)N)NC(=O)[C@H](CCC(=O)O)NC(=O)[C@@H](NC(=O)[C@H](C)NC(=O)[C@@H]1CCCCNC(=O)C[C@H](NC(=O)[C@H](CCCNC(=N)N)NC(=O)CC[C@H](NC(=O)CCCCCCCCCCCCCCCCCCC(=O)O)C(=O)O)C(=O)NCC(=O)N[C@@H]([C@@H](C)O)C(=O)N[C@@H](C)C(=O)N[C@@H](CO)C(=O)N1)[C@@H](C)O
hAMYR3 EC50 [nM] (cAMP formation, 1321N1 cells expressing hAMYR3) [1]: 0.108 nM | hCT-R EC50 [nM] (cAMP formation, 1321N1 cells expressing hCT-R) [2]: 0.386 nM

B2: Compound 15 (peptide)
peptide: {C20 diacid-γGlu}-RDGTATKATQRLAHFLQRSSF[Sar]A[NMeI]PSSTEVGSNT[Hyp]-NH2
modifications: lactam 2-7
SMILES: CC[C@H](C)[C@@H](C(=O)N1CCC[C@H]1C(=O)N[C@@H](CO)C(=O)N[C@@H](CO)C(=O)N[C@H](C(=O)N[C@@H](CCC(=O)O)C(=O)N[C@H](C(=O)NCC(=O)N[C@@H](CO)C(=O)N[C@@H](CC(N)=O)C(=O)N[C@H](C(=O)N1C[C@H](O)C[C@H]1C(N)=O)[C@@H](C)O)C(C)C)[C@@H](C)O)N(C)C(=O)[C@H](C)NC(=O)CN(C)C(=O)[C@H](Cc1ccccc1)NC(=O)[C@H](CO)NC(=O)[C@H](CO)NC(=O)[C@H](CCCNC(=N)N)NC(=O)[C@H](CCC(N)=O)NC(=O)[C@H](CC(C)C)NC(=O)[C@H](Cc1ccccc1)NC(=O)[C@H](Cc1c[nH]cn1)NC(=O)[C@H](C)NC(=O)[C@H](CC(C)C)NC(=O)[C@H](CCCNC(=N)N)NC(=O)[C@H](CCC(N)=O)NC(=O)[C@@H](NC(=O)[C@H](C)NC(=O)[C@@H]1CCCCNC(=O)C[C@H](NC(=O)[C@H](CCCNC(=N)N)NC(=O)CC[C@H](NC(=O)CCCCCCCCCCCCCCCCCCC(=O)O)C(=O)O)C(=O)NCC(=O)N[C@@H]([C@@H](C)O)C(=O)N[C@@H](C)C(=O)N[C@@H]([C@@H](C)O)C(=O)N1)[C@@H](C)O
hAMYR3 EC50 [nM] (cAMP formation, 1321N1 cells expressing hAMYR3) [1]: 0.017 nM | hCT-R EC50 [nM] (cAMP formation, 1321N1 cells expressing hCT-R) [2]: 0.056 nM

B3: Compound 2 (peptide)
peptide: {C20 diacid-γGlu}-RDGTAT[Dab]ATERLAHFLQRSSF[Sar]A[NMeI]LSSTEVGSNT[Hyp]-NH2
modifications: lactam 2-7
SMILES: CC[C@H](C)[C@@H](C(=O)N[C@@H](CC(C)C)C(=O)N[C@@H](CO)C(=O)N[C@@H](CO)C(=O)N[C@H](C(=O)N[C@@H](CCC(=O)O)C(=O)N[C@H](C(=O)NCC(=O)N[C@@H](CO)C(=O)N[C@@H](CC(N)=O)C(=O)N[C@H](C(=O)N1C[C@H](O)C[C@H]1C(N)=O)[C@@H](C)O)C(C)C)[C@@H](C)O)N(C)C(=O)[C@H](C)NC(=O)CN(C)C(=O)[C@H](Cc1ccccc1)NC(=O)[C@H](CO)NC(=O)[C@H](CO)NC(=O)[C@H](CCCNC(=N)N)NC(=O)[C@H](CCC(N)=O)NC(=O)[C@H](CC(C)C)NC(=O)[C@H](Cc1ccccc1)NC(=O)[C@H](Cc1c[nH]cn1)NC(=O)[C@H](C)NC(=O)[C@H](CC(C)C)NC(=O)[C@H](CCCNC(=N)N)NC(=O)[C@H](CCC(=O)O)NC(=O)[C@@H](NC(=O)[C@H](C)NC(=O)[C@@H]1CCNC(=O)C[C@H](NC(=O)[C@H](CCCNC(=N)N)NC(=O)CC[C@H](NC(=O)CCCCCCCCCCCCCCCCCCC(=O)O)C(=O)O)C(=O)NCC(=O)N[C@@H]([C@@H](C)O)C(=O)N[C@@H](C)C(=O)N[C@@H]([C@@H](C)O)C(=O)N1)[C@@H](C)O
hAMYR3 EC50 [nM] (cAMP formation, 1321N1 cells expressing hAMYR3) [1]: 0.032 nM | hCT-R EC50 [nM] (cAMP formation, 1321N1 cells expressing hCT-R) [2]: 0.105 nM

B4: Compound 16 (peptide)
peptide: {C20 diacid-γGlu}-RDGTATKATQRLAHFLQRSSF[Sar]A[NMeI]LSSTEVGSNT[Hyp]-NH2
modifications: lactam 2-7
SMILES: CC[C@H](C)[C@@H](C(=O)N[C@@H](CC(C)C)C(=O)N[C@@H](CO)C(=O)N[C@@H](CO)C(=O)N[C@H](C(=O)N[C@@H](CCC(=O)O)C(=O)N[C@H](C(=O)NCC(=O)N[C@@H](CO)C(=O)N[C@@H](CC(N)=O)C(=O)N[C@H](C(=O)N1C[C@H](O)C[C@H]1C(N)=O)[C@@H](C)O)C(C)C)[C@@H](C)O)N(C)C(=O)[C@H](C)NC(=O)CN(C)C(=O)[C@H](Cc1ccccc1)NC(=O)[C@H](CO)NC(=O)[C@H](CO)NC(=O)[C@H](CCCNC(=N)N)NC(=O)[C@H](CCC(N)=O)NC(=O)[C@H](CC(C)C)NC(=O)[C@H](Cc1ccccc1)NC(=O)[C@H](Cc1c[nH]cn1)NC(=O)[C@H](C)NC(=O)[C@H](CC(C)C)NC(=O)[C@H](CCCNC(=N)N)NC(=O)[C@H](CCC(N)=O)NC(=O)[C@@H](NC(=O)[C@H](C)NC(=O)[C@@H]1CCCCNC(=O)C[C@H](NC(=O)[C@H](CCCNC(=N)N)NC(=O)CC[C@H](NC(=O)CCCCCCCCCCCCCCCCCCC(=O)O)C(=O)O)C(=O)NCC(=O)N[C@@H]([C@@H](C)O)C(=O)N[C@@H](C)C(=O)N[C@@H]([C@@H](C)O)C(=O)N1)[C@@H](C)O
hAMYR3 EC50 [nM] (cAMP formation, 1321N1 cells expressing hAMYR3) [1]: 0.035 nM | hCT-R EC50 [nM] (cAMP formation, 1321N1 cells expressing hCT-R) [2]: 0.043 nM

B5: Compound 17 (peptide)
peptide: {C20 diacid-γGlu}-RDGTATKATERLAHFLQRSSF[Sar]A[NMeI]PSSTEVGSNT[Hyp]-NH2
modifications: lactam 2-7
SMILES: CC[C@H](C)[C@@H](C(=O)N1CCC[C@H]1C(=O)N[C@@H](CO)C(=O)N[C@@H](CO)C(=O)N[C@H](C(=O)N[C@@H](CCC(=O)O)C(=O)N[C@H](C(=O)NCC(=O)N[C@@H](CO)C(=O)N[C@@H](CC(N)=O)C(=O)N[C@H](C(=O)N1C[C@H](O)C[C@H]1C(N)=O)[C@@H](C)O)C(C)C)[C@@H](C)O)N(C)C(=O)[C@H](C)NC(=O)CN(C)C(=O)[C@H](Cc1ccccc1)NC(=O)[C@H](CO)NC(=O)[C@H](CO)NC(=O)[C@H](CCCNC(=N)N)NC(=O)[C@H](CCC(N)=O)NC(=O)[C@H](CC(C)C)NC(=O)[C@H](Cc1ccccc1)NC(=O)[C@H](Cc1c[nH]cn1)NC(=O)[C@H](C)NC(=O)[C@H](CC(C)C)NC(=O)[C@H](CCCNC(=N)N)NC(=O)[C@H](CCC(=O)O)NC(=O)[C@@H](NC(=O)[C@H](C)NC(=O)[C@@H]1CCCCNC(=O)C[C@H](NC(=O)[C@H](CCCNC(=N)N)NC(=O)CC[C@H](NC(=O)CCCCCCCCCCCCCCCCCCC(=O)O)C(=O)O)C(=O)NCC(=O)N[C@@H]([C@@H](C)O)C(=O)N[C@@H](C)C(=O)N[C@@H]([C@@H](C)O)C(=O)N1)[C@@H](C)O
hAMYR3 EC50 [nM] (cAMP formation, 1321N1 cells expressing hAMYR3) [1]: 0.025 nM | hCT-R EC50 [nM] (cAMP formation, 1321N1 cells expressing hCT-R) [2]: 0.058 nM

B6: Compound 18 (peptide)
peptide: {C20 diacid-γGlu}-RDGTATKATERLAHFLQRSSF[Sar]A[NMeI]LSSTEVGSNT[Hyp]-NH2
modifications: lactam 2-7
SMILES: CC[C@H](C)[C@@H](C(=O)N[C@@H](CC(C)C)C(=O)N[C@@H](CO)C(=O)N[C@@H](CO)C(=O)N[C@H](C(=O)N[C@@H](CCC(=O)O)C(=O)N[C@H](C(=O)NCC(=O)N[C@@H](CO)C(=O)N[C@@H](CC(N)=O)C(=O)N[C@H](C(=O)N1C[C@H](O)C[C@H]1C(N)=O)[C@@H](C)O)C(C)C)[C@@H](C)O)N(C)C(=O)[C@H](C)NC(=O)CN(C)C(=O)[C@H](Cc1ccccc1)NC(=O)[C@H](CO)NC(=O)[C@H](CO)NC(=O)[C@H](CCCNC(=N)N)NC(=O)[C@H](CCC(N)=O)NC(=O)[C@H](CC(C)C)NC(=O)[C@H](Cc1ccccc1)NC(=O)[C@H](Cc1c[nH]cn1)NC(=O)[C@H](C)NC(=O)[C@H](CC(C)C)NC(=O)[C@H](CCCNC(=N)N)NC(=O)[C@H](CCC(=O)O)NC(=O)[C@@H](NC(=O)[C@H](C)NC(=O)[C@@H]1CCCCNC(=O)C[C@H](NC(=O)[C@H](CCCNC(=N)N)NC(=O)CC[C@H](NC(=O)CCCCCCCCCCCCCCCCCCC(=O)O)C(=O)O)C(=O)NCC(=O)N[C@@H]([C@@H](C)O)C(=O)N[C@@H](C)C(=O)N[C@@H]([C@@H](C)O)C(=O)N1)[C@@H](C)O
hAMYR3 EC50 [nM] (cAMP formation, 1321N1 cells expressing hAMYR3) [1]: 0.031 nM | hCT-R EC50 [nM] (cAMP formation, 1321N1 cells expressing hCT-R) [2]: 0.085 nM

B7: Compound 19 (peptide)
peptide: {C20 diacid-γGlu}-RDGTAT[hLys]ATERLAHFLQRSSF[Sar]A[NMeI]LSSTEVGSNT[Hyp]-NH2
modifications: lactam 2-7
SMILES: CC[C@H](C)[C@@H](C(=O)N[C@@H](CC(C)C)C(=O)N[C@@H](CO)C(=O)N[C@@H](CO)C(=O)N[C@H](C(=O)N[C@@H](CCC(=O)O)C(=O)N[C@H](C(=O)NCC(=O)N[C@@H](CO)C(=O)N[C@@H](CC(N)=O)C(=O)N[C@H](C(=O)N1C[C@H](O)C[C@H]1C(N)=O)[C@@H](C)O)C(C)C)[C@@H](C)O)N(C)C(=O)[C@H](C)NC(=O)CN(C)C(=O)[C@H](Cc1ccccc1)NC(=O)[C@H](CO)NC(=O)[C@H](CO)NC(=O)[C@H](CCCNC(=N)N)NC(=O)[C@H](CCC(N)=O)NC(=O)[C@H](CC(C)C)NC(=O)[C@H](Cc1ccccc1)NC(=O)[C@H](Cc1c[nH]cn1)NC(=O)[C@H](C)NC(=O)[C@H](CC(C)C)NC(=O)[C@H](CCCNC(=N)N)NC(=O)[C@H](CCC(=O)O)NC(=O)[C@@H](NC(=O)[C@H](C)NC(=O)[C@@H]1CCCCCNC(=O)C[C@H](NC(=O)[C@H](CCCNC(=N)N)NC(=O)CC[C@H](NC(=O)CCCCCCCCCCCCCCCCCCC(=O)O)C(=O)O)C(=O)NCC(=O)N[C@@H]([C@@H](C)O)C(=O)N[C@@H](C)C(=O)N[C@@H]([C@@H](C)O)C(=O)N1)[C@@H](C)O
hAMYR3 EC50 [nM] (cAMP formation, 1321N1 cells expressing hAMYR3) [1]: 0.006 nM | hCT-R EC50 [nM] (cAMP formation, 1321N1 cells expressing hCT-R) [2]: 0.028 nM
